The values below come from paper PMC5743471 (Theranostics, 2018).

In general, Kd refers to the equilibrium constant for the complex coming apart. By koff is commonly meant a measure of how fast the partners let go of each other. Read a low koff as a long-lived complex. The term kon denotes the second-order rate constant of association. A high value points to fast association.

This assay has as its target mouse serum albumin (mouse, UniProt P07724 25-608). Briefly: SPR. (In SPR one partner is held on a chip, and binding of the other changes the refractive index at the surface.)

B1: ABD-iTEP-pOVA (designed binder)
chain: LAEAKVLANRELDKYGVSDFYKRLINKAKTVEGVEALKLHILAALPGVGVPGGVGVPGGVGVPGGVGVPGGVGVPGGVGVPGGVGVPGGVGVPGGVGVPGGVGVPGGVGVPGGVGVPGGVGVPGGVGVPGGVGVPGGVGVPGGVGVPGGVGVPGGVGVPGGVGVPGGVGVPGGVGVPGGVGVPGGVGVPGGVGVPGGVGVPGGVGVPGGVGVPGGVGVPGGVGVPGGVGVPGGVGVPGGVGVPGGVGVPGGVGVPGGVLPGVGGVLPGVGGVLPGVGGVLPGVGGVLPGVGGVLPGVGGVLPGVGGVLPGVGGVLPGVGGVLPGVGGVLPGVGGVLPGVGGVLPGVGGVLPGVGGVLPGVGGVLPGVGGSIINFEKL
On to B1, for which the Kd stood at 1.4 ± 0.1 nM.

B2: ABD-iTEP (designed binder)
chain: LAEAKVLANRELDKYGVSDFYKRLINKAKTVEGVEALKLHILAALPGVGVPGGVGVPGGVGVPGGVGVPGGVGVPGGVGVPGGVGVPGGVGVPGGVGVPGGVGVPGGVGVPGGVGVPGGVGVPGGVGVPGGVGVPGGVGVPGGVGVPGGVGVPGGVGVPGGVGVPGGVGVPGGVGVPGGVGVPGGVGVPGGVGVPGGVGVPGGVGVPGGVGVPGGVGVPGGVGVPGGVGVPGGVGVPGGVGVPGGVGVPGGVGVPGGVLPGVGGVLPGVGGVLPGVGGVLPGVGGVLPGVGGVLPGVGGVLPGVGGVLPGVGGVLPGVGGVLPGVGGVLPGVGGVLPGVGGVLPGVGGVLPGVGGVLPGVGGVLPGVG
On to B2, for which the Kd was found to be 1.41 ± 0.04 nM, the koff turned out to be 0.00305 s⁻¹ and the kon amounted to 2.17e+06 M⁻¹ s⁻¹.
